Measurements from patent US12319739 (F STAR DELTA, dated 2025).

Assays:
[1] = molecular target: T1, human GITR (human, UniProt Q9Y5U5 26-161, limits assumed); test: SPR, receptor amine-coupled ~1000 RU
T1 sequence (looked up): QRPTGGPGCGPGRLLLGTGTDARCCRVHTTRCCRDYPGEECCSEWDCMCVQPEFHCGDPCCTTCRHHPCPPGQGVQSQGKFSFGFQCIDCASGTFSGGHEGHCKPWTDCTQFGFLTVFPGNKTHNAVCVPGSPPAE
Method: (§1) The specificity of the anti-human CD137 Fcabs for human CD137 compared to other related TNFSFR family members was tested. 8 of the Fcabs were tested in mock mAb^2 (HelD1.3) format and measured by SPR in a Biacore T200 (GE Healthcare) by testing for binding to other human TNFRSF receptors: CD40, OX40 and GITR. Amine coupling (amine coupling kit, GE Healthcare, BR-1000-50) was used to coat human CD40, GITR and OX40 to approximately 1000 RU in Biacore CM5 chips (GE Healthcare, cat no 29149603). […] The chip was regenerated by injection of 10 mM glycine pH 2.5 for 12 s at 30 µl/min. Antibodies specific to the different TNFRSF members were used as positive controls to verify Biacore chip coating. Data was double reference subtracted and analysed using BIAevaluation 3.2 software.

[2] = molecular target: T2, human OX40 (human, UniProt P43489 29-216); test: SPR, receptor amine-coupled ~1000 RU
T2 sequence (looked up): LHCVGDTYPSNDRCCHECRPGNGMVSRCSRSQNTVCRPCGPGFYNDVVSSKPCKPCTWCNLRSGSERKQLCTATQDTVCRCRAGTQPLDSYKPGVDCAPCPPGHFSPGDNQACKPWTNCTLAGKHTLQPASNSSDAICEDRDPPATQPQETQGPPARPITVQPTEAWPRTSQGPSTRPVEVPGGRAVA
Method: as §1

[3] = molecular target: human CD40 (human, UniProt P25942 21-193); test: SPR, receptor amine-coupled ~1000 RU
Sequence of human CD40 (P25942 21-193 limits assumed): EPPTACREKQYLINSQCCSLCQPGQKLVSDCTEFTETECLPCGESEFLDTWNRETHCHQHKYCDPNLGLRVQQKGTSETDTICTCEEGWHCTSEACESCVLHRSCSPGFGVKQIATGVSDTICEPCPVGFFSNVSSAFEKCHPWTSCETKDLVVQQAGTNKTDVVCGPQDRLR
Method: as §1

[4] = molecular target: T3, cCD137-mFc-Avi (cynomolgus; mouse, one biotin on each Avi tag in the biotinylated form); test: SPR, mAb2 captured by anti-human Fab, antigen in solution
T3 construct: also called cynomolgus dimeric CD137; cyno CD137-mFc-Avi
T3 chain: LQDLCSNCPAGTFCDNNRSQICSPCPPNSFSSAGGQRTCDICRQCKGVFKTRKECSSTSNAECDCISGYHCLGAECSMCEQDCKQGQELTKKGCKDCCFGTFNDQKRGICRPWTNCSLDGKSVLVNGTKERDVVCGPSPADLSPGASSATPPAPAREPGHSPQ
Method: (§2) Each mAb^2 was captured to approximately 150 RU by injecting a 3 µg/ml solution of mAb^2 diluted in HBS-EP+buffer (GE Healthcare #BR1006-69) for 60 seconds at 30 µl/min. Then different concentrations of human, cyno or mouse CD137 antigen (unbiotinylated human, cyno or mouse CD137-mFc-Avi or human CD137-Avi-His) in HBS-EP+buffer were flowed over the chip for 3 min at 60 µl/min and then allowed to dissociate for 10 minutes. After each antigen concentration the chip was regenerated by injecting 10 mM glycine pH 2.1 at a flow rate of 30 µl/min for 30 seconds. Buffer HBS-EP+ was injected before the highest concentration of antigen and after the lowest concentration of antigen for reference subtraction, and one of the concentrations at random was repeated twice. The binding kinetics were fit with a 1:1 Langmuir model to generate equilibrium binding constants (K_D) for each sample. Data analysis was performed with BiaEvaluation software version 3.2.

[5] = molecular target: T4, hCD137-Avi-His (human, UniProt Q07011 24-186, single biotin on the Avi tag in the biotinylated form); test: as above
T4 construct: Monomer; also called human monomeric CD137; human CD137-Avi-His
T4 sequence (Q07011 24-186): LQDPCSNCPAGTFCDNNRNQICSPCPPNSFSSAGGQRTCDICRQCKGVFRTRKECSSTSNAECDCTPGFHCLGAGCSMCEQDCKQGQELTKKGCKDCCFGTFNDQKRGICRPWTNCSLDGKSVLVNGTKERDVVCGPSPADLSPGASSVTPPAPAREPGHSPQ
Method: as §2

[6] = molecular target: T5, hCD137-mFc-Avi (human; mouse, UniProt Q07011 24-186, one biotin on each Avi tag in the biotinylated form); test: as above
T5 construct: also called human dimeric CD137; human CD137-mFc-Avi
T5 sequence (Q07011 24-186): as above
Method: as §2

[7] = molecular target: human CD137 expressed on cells (human, UniProt Q07011 24-255); test: cell-based or functional assay
Sequence of human CD137 expressed on cells (Q07011 24-255): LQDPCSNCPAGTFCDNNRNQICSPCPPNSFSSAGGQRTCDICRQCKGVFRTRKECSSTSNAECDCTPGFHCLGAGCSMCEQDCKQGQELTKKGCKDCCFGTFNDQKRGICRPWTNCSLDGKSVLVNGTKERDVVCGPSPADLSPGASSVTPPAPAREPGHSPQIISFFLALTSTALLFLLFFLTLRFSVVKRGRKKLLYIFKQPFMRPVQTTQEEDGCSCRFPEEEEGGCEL

B1: FS22-172-003/HelD1.3 (bispecific antibody, human IgG1, kappa, L234A L235A)
heavy: QVQLQESGPGLVRPSQTLSLTCTVSGSTFSGYGVNWVRQPPGRGLEWIGMIWGDGNTDYNSALKSRVTMLVDTSKNQFSLRLSSVTAADTAVYYCARERDYRLDYWGQGSLVTVSSASTKGPSVFPLAPSSKSTSGGTAALGCLVKDYFPEPVTVSWNSGALTSGVHTFPAVLQSSGLYSLSSVVTVPSSSLGTQTYICNVNHKPSNTKVDKKVEPKSCDKTHTCPPCPAPEAAGGPSVFLFPPKPKDTLMISRTPEVTCVVVDVSHEDPEVKFNWYVDGVEVHNAKTKPREEQYNSTYRVVSVLTVLHQDWLNGKEYKCKVSNKALPAPIEKTISKAKGQPREPQVYTLPPSRDELPYIIPPYNQVSLTCLVKGFYPSDIAVEWESNGQPENNYKTTPPVLDSDGSFFLYSKLTVGADRWLEGNVFSCSVMHEALHNHYTQKSLSLSPG
light: DIQMTQSPASLSASVGETVTITCRASGNIHNYLAWYQQKQGKSPQLLVYNAKTLADGVPSRFSGSGSGTQYSLKINSLQPEDFGSYYCQHFWSTPRTFGGGTKLEIKRTVAAPSVFIFPPSDEQLKSGTASVVCLLNNFYPREAKVQWKVDNALQSGNSQESVTEQDSKDSTYSLSSTLTLSKADYEKHKVYACEVTHQGLSSPVTKSFNRGEC
notes: IgG1
binding result [1]: no binding (tested: 1 µM) | binding result [2]: no binding (tested: 1 µM) | binding result [3]: no binding (tested: 1 µM) | Kd [4]: 1.3 nM | human monomeric CD137 KD fold difference relative to human dimeric KD [5]: > 200 fold | Kd [6]: 1.5 nM | NF-κB luciferase reporter EC50, HEK.FRT.luc.hCD137 cells, crosslinked with Protein L (+XL) [7]: 32.6 nM
